Biological target: T1, ASM (Mus musculus, UniProt Q04519)
T1 construct: from tissue; host or cells: mouse serum/plasma and brain tissue (APP/PS1, RSD-stressed C57BL/6, FUS R521C mice)
T1 sequence (Q04519 45-627): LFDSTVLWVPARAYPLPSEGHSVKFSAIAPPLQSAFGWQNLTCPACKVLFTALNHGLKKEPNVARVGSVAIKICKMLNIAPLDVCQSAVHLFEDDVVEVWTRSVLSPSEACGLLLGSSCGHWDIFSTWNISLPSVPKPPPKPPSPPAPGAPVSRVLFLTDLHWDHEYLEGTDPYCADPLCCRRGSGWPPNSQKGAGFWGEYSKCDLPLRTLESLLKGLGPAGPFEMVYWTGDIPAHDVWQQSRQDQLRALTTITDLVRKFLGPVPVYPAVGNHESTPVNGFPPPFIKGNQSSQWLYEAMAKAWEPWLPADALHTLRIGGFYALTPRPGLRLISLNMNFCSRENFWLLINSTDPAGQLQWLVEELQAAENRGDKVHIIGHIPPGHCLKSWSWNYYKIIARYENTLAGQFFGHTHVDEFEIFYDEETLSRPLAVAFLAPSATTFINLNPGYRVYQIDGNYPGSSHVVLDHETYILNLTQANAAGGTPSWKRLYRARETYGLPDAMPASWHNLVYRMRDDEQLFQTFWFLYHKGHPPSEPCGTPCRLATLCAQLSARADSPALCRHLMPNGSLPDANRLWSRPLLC
Assay: ASM activity in plasma of depression-induced (RSD stress) mice
Format: in vivo
Details: 50 mg/kg i.p. twice weekly for 4 weeks prior to induction, vs PBS, FIG. 58B
Method: The concentration level of ASM was measured as follows. Specifically, 3μ ? of mouse serum, brain tissue and fibroblast samples were mixed with ASM activity buffer and stored at 37° C. 114 μ ? of ethanol was added to terminate the hydrolysis reaction, followed by centrifugation. 30 μ ? of supernatant was transferred to a glass vial, of which 5 μ ? was applied to the UPLC system. The ASM concentration levels were quantified by comparison with sphingomyelin and Bodipy (aminoacetaldehyde) conjugated with ceramide. The extraction and quantification of the sphingomyelin and ceramide was carried out by extracting and drying the lipids from the sample according to a known conventional method, and resuspending the dried lipid extract to 25 μl of 0.2% Igepal CA-630 (Sigma-Aldrich), and the concentration levels of each lipid were quantitated using the UPLC system. […]
The concentration level of ASM was measured as follows. […] The ASM concentration levels were quantified by comparison with sphingomyelin and Bodipy (aminoacetaldehyde) conjugated with ceramide. The extraction and quantification of the sphingomyelin and ceramide was carried out by extracting and drying the lipids from the sample according to a known conventional method, and resuspending the dried lipid extract to 25 μl of 0.2% Igepal CA-630 (Sigma-Aldrich), and the concentration levels of each lipid were quantitated using the UPLC system.

- level of ASM activity in the plasma: significantly low
B1: ASM-ab 23A12C3: self-made monoclonal ASM antibody, Koma biotech; heavy chain SEQ ID NO. 29, light chain SEQ ID NO. 30 (antibody)
heavy: MGWSWIFLFLLSGTAGVHSEVQLQQSGPVLVKPGASVKMSCKASGYTFTDYYMNWVKQSHGKSLEWIGVINPYNDGTSYNQKFKGKATLTVDKSSSTAYMELNSLTSEDSAVYYCAREKLYYYGRDYAMDYWGQGTSVTVSSAKTTPPSVYPLAPGSAAQTNSMVTLGCLVKGYFPEPVTVTWNSGSLSSGVHTFPAVLQSDLYTLSSSVTVPSSTWPSQTVTCNVAHPASSTKVDKKIVPRDCGCKPCICTVPEVSSVFIFPPKPKDVLTITLTPKVTCVVVDISKDDPEVQFSWFVDDVEVHTAQTKPREEQINSTFRSVSELPIMHQDWLNGKEFKCRVNSAAFPAPIEKTISKTKGRPKAPQVYTIPPPKEQMAKDKVSLTCMITNFFPEDITVEWQWNGQPAENYKNTQPIMDTDGSYFVYSKLNVQKSNWEAGNTFTCSVLHEGLHNHHTEKSLSHSPGK
light: MSSAQFLGLLLLCFQGTRCDIQMTQTTSSLSASLGDRVTISCRSSQDISNYLNWCQQKPDGTVKLLIYYTSRLHSGVPSRFSGSGSGTDYSLTISNLEQEDIATYFCQQDNTLPYTFGGGTKLEIKRADAAPTVSIFPPSSEQLTSGGASVVCFLNNFYPKDINVKWKIDGSERQNGVLNSWTDQDSKDSTYSMSSTLTLTKDEYERHNSYTCEATHKTSTSPIVKSFNRNEC
modifications: 23A12C3_Heavy chain; 23A12C3_Light chain
notes: self-made monoclonal ASM antibody, Koma biotech; 30
